In the experiment the target is human CD38 Fc-fusion aa 45-300 (human) (UniProt P28907). Description: ELISA on CD38 Fc-fusion protein, IgG format.

B1: MOR06189 IgG (antibody, part only; not given: Light chain, constant regions, V domains shown, part only)
VH: QVQLVESGGGLVQPGGSLRLSCAASGFTFSSYYMNWVRQAPGKGLEWVSAINMIGNVTNYADSVKGRFTISRDNSKNTLYLQMNSLRAEDTAVYYCARDLPLVYTGFAYWGQGTLVTVSS
For the molecule B1, the ELISA CD38 Fc-Fusion protein (% Reactivity of MOR03087) turned out to be 126%.

B2: MOR06190 IgG (antibody, part only; not given: Light chain, constant regions, V domains shown, part only)
VH: QVQLVESGGGLVQPGGSLRLSCAASGFTFSSYYMNWVRQAPGKGLEWVSYINPNGMMTNYADSVKGRFTISRDNSKNTLYLQMNSLRAEDTAVYYCARDLPLVYTGFAYWGQGTLVTVSS
For the molecule B2, the ELISA CD38 Fc-Fusion protein (% Reactivity of MOR03087) is 125%.
